# Data: paper PMC7714071, “Interaction of amyloid beta with humanin and acetylcholinesterase is modulated by ATP” (FEBS Open Bio, 2020)
# B1: acetylcholinesterase (protein)
# chain: EGREDAELLVTVRGGRLRGIRLKTPGGPVSAFLGIPFAEPPMGPRRFLPPEPKQPWSGVVDATTFQSVCYQYVDTLYPGFEGTEMWNPNRELSEDCLYLNVWTPYPRPTSPTPVLVWIYGGGFYSGASSLDVYDGRFLVQAERTVLVSMNYRVGAFGFLALPGSREAPGNVGLLDQRLALQWVQENVAAFGGDPTSVTLFGESAGAASVGMHLLSPPSRGLFHRAVLQSGAPNGPWATVGMGEARRRATQLAHLVGCPPGGTGGNDTELVACLRTRPAQVLVNHEWHVLPQESVFRFSFVPVVDGDFLSDTPEALINAGDFHGLQVLVGVVKDEGSYFLVYGAPGFSKDNESLISRAEFLAGVRVGVPQVSDLAAEAVVLHYTDWLHPEDPARLREALSDVVGDHNVVCPVAQLAGRLAAQGARVYAYVFEHRASTLSWPLWMGVPHGYEIEFIFGIPLDPSRNYTAEEKIFAQRLMRYWANFARTGDPNEPRDPKAPQWPPYTAGAQQYVSLDLRPLEVRRGLRAQACAFWNRFLPKLLSATDTLDEAERQWKAEFHRWSSYMVHWKNQFDHYSKQDRCSDL
# Legend:
# [1] = system: Aβ in H1299 cell-conditioned media; assay: ELISA, oligomer versus total Aβ in H1299 cell-conditioned media; type: cell-based, human; conditions: AChE-immunodepleted H1299 media; Fig. 8B
# Procedure: Aβ ELISAs were carried out according to previous protocols for determining the oligomeric and monomeric concentrations of Aβ and as we recently reported. Briefly, total Aβ (monomers + oligomers) was measured by two‐site binding ELISAs using the capture 6E10 monoclonal antibody and 4G8‐conjugated biotin as the detection antibody, which recognizes a distinct epitope, then quantitated using streptavidin‐HRP.
# Using the same samples, oligomerized Aβ was measured by a single‐site ELISA in which antibodies targeting the same primary sequence epitope were used for both capture (4G8) and detection (4G8‐biotin). Only oligomers are detected with this approach since the 4G8‐biotin antibody cannot bind to the captured monomer because the epitope is blocked by the 4G8 capture antibody. […]
# Conditioned media were immunodepleted (ID) according to the methods previously described and our recently published report. […] The ID media were then carefully removed and analyzed for the presence of the target protein or peptide by ELISA. The same amount of protein (3 µL of 600 µg·mL^−1 total protein) of each sample was analyzed in the experiments. […]
# Both epitopes recognized by the 6E10 and 4G8 antibodies have been previously shown to be exposed in Aβ aggregates. […] Fold change relative to controls using anti‐6E10 or anti‐4G8 antibodies incubated with 300 μL of the medium not incubated with cells was calculated. […]
# [2] = system: Aβ42; conditions: cited from earlier work
# Source text: Almost all types of cells produce amyloid beta (Aβ), a peptide well recognized for its role in the development and progression of different stages of Alzheimer's disease (AD). The Aβ peptide is ~ 4 kDa and derived from the sequential processing of the higher molecular weight amyloid precursor protein by two membrane‐bound endoproteases, β‐ and γ‐secretase. Different C‐terminal Aβ heterogeneity results from processing by γ‐secretase, where Aβ40 represents the most abundant isoform (~ 90%) as compared to Aβ42 (~ 10%). Self‐assembled Aβ40/42 peptides into amyloid fib ... || Amino acid residues involved in direct interactions between HN and Aβ40 were identified previously by molecular modeling. The specific epitopes at the binding interface between HN and Aβ40 were identified, by proteolytic epitope excision and extraction in addition to affinity–mass spectrometric data analysis, to be HN (5–15) and Aβ (17–28). […] Inhibiting the 17–28 region of Aβ reduced aggregation of the neurotoxic amyloid fibrils and related cytotoxicity in SH‐SY5Y, a human neuroblastoma cell ... || Acetylcholinesterase (AChE) is an enzyme known for its role in terminating acetylcholine‐mediated neurotransmission at the synaptic cleft. The majority of the cortical AChE in the Alzheimer's brain is mainly associated with the amyloid core of senile plaques. […]
molecule,measurement,setting,value
B1,effect of AChE ID on oligomer versus total Aβ,[1],No change
same,effect on Aβ42 oligomeric formation,[2],increases Aβ42 oligomeric formation
